The results in this text go back to patent US20100028924A1 (RAPPAPORT FAMILY INSTITUTE RESEARCH IN THE MEDICAL SCIENCES, published 2010).

Sequences and labels used below:
B1: wt rePON1-192K (enzyme)
chain: MAKLTALTLLGLGLALFDGQKSSFQTRFNVHREVTPVELPNCNLVKGVDNGSEDLEILPNGLAFISSGLKYPGIMSFDPDKSGKILLMDLNEEDPVVLELGITGNTLDISSFNPHGISTFTDEDNTVYLLVVNHPDSSSTVEVFKFQEEEKSLLHLKTIRHKLLPSVNDIVAVGPEHFYATNDHYFADPYLKSWEMHLGLAWSFVTYYSPNDVRVVAEGFDFANGINISPDGKYVYIAELLAHKIHVYEKHANWTLTPLKSLDFDTLVDNISVDPVTGDLWVGCHPNGMRIFYYDPKNPPGSEVLRIQDILSEEPKVTVVYAENGTVLQGSTVAAVYKGKLLIGTVFHKALYCEL
B2: rePON1-192R (enzyme)
chain: B1 chain with K192R
B3: rePON1-192Q (enzyme)
chain: B1 chain with K192Q

Numbering of substitutions follows the chain as printed.

In the experiment the target is rHDL-apoA-I (reconstituted discoidal HDL particles carrying apolipoprotein A-I). Nature of the experiment: cell-based or functional assay.
As for B1, the “increase of cholesterol efflux from macrophages relative to rHDL-apoA-I alone” value came out at 93%.

B2: the “increase of cholesterol efflux from macrophages relative to rHDL-apoA-I alone” value came out at 67%.

For B3, the “increase of cholesterol efflux from macrophages relative to rHDL-apoA-I alone” value came out at 30%.
